Experimental data reported in patent US20080215402A1, “Methods and Systems for Evaluating Interaction of Medical Products and Dependence on Demographic Variables” (priority 2005, published 2008).
Where two headings read alike, the source gives them in different places. Marks after values point to notes of the source that are not given here.

Tests used:
[1] = N=898 tuberculosis patients vs 200 random samples; Bonferroni-corrected 5% threshold; FIG. 7
[2] = human
[3] = orthogonalized contingency lattice analysis of AERS reports, reference condition rhabdomyolysis; details: for Z (z-score, rhabdomyolysis vs non-rhabdomyolysis randomized datasets): * = significant at Bonferroni-corrected 5% level (|z| > 12); for Nrhabdo (subset size based on the rhabdomyolysis dataset): records listing the drug(s) and excluding the other drugs, NR=11,773
Experimental: As a consequence, it should be noted that all of these subsets are mutually exclusive, with no patient appearing in more than one subset.
The results obtained from the orthogonalized contingency lattice just described are analyzed exactly as in the case of the basic contingency lattice described previously.
As before, significance is assessed using the Bonferroni-corrected z-score analysis described earlier herein. The primary difference between the results obtained with the original contingency lattice construction and those obtained with the orthogonalized construction lies in the fact that the orthogonalized patient subsets are mutually exclusive.

[4] = two-way interaction analysis of AERS records, Infliximab and Methotrexate with pulmonary fibrosis; design: species or system patients; details: records listing both drugs vs 100 random samples of each reference population; FIG. 6
Text: In the following description, let N denote the size of the first subset listed above—i.e., the total number of records in the available database listing both drugs. The interaction analysis considered here begins by computing NX, the number of times that Reaction X appears in this first record subset, and the objective of the analysis is to provide reference numbers to answer the following questions:
Each of these questions defines a collection of random reference sets that may be used to provide answers. Specifically, M random samples, each of size N, are drawn from the reference population defined by each of these questions (i.e., Drug A alone, Drug B alone, and neither drug), and the number of records in each random sample that also lists Reaction X is recorded.

[5] = reaction: antinuclear antibody positive
[6] = reaction: crohn's disease aggravated
[7] = reaction: disseminated tuberculosis
[8] = reaction: dna antibody nos positive
[9] = reaction: drug withdrawal syndrome
[10] = reaction: infusion related reaction
[11] = reaction: pharmaceutical product complaint
[12] = reaction: pneumocystis carinii pneumonia
[13] = reaction: pulmonary tuberculosis
[14] = reaction: rheumatoid arthritis aggravated
[15] = reaction: systemic lupus erythematosus

infliximab
number of adverse events that exceed the Bonferroni-corrected 5% significance threshold (AERS): 365 | Uab (designation: bone & joint tuberculosis): 1.09 × 10^5 | Uab (designation: bone amp joint tuberculosis): 1.34 × 10^6 | Uab (designation: disseminated tuberculosis): 6.22 × 10^117 | Uab (designation: lymph node tuberculosis): 1.57 × 10^8 | Uab (designation: lymph node tuberculosis nos): 4.98 × 10^15 | Uab (designation: peritoneal tuberculosis): 8.61 × 10^9 | Uab (designation: pulmonary tuberculosis): 1.11 × 10^109 | Uab (designation: spleen tuberculosis): 1.47 × 10^12 | Uab (designation: tuberculosis): 1.18 × 10^74 | Uab (designation: tuberculosis gastrointestinal nos): 2.85 × 10^10 | Uab (designation: tuberculosis nos): >10^308 | Uab (designation: tuberculosis reactivated): 3.40 × 10^6 | NAB [5]: 65 | RAB [5]: 12.93 | log10 UAB (Statistical Unexpectedness) [5]: 51.53 | NAB (reaction: basal cell carcinoma): 88 | RAB (reaction: basal cell carcinoma): 21.17 | log10 UAB (Statistical Unexpectedness) (reaction: basal cell carcinoma): 92.07 | NAB (reaction: crohn's disease): 60 | RAB (reaction: crohn's disease): 11.26 | log10 UAB (Statistical Unexpectedness) (reaction: crohn's disease): 43.74 | NAB [6]: 45 | RAB [6]: 22.02 | log10 UAB (Statistical Unexpectedness) [6]: 48.51 | NAB [7]: 93 | RAB [7]: 30.00 | log10 UAB (Statistical Unexpectedness) [7]: 117.79 | NAB [8]: 59 | RAB [8]: 24.01 | log10 UAB (Statistical Unexpectedness) [8]: 66.39 | NAB [9]: 2 | RAB [9]: 0.02 | log10 UAB (Statistical Unexpectedness) [9]: 44.68 | NAB (reaction: flushing): 254 | RAB (reaction: flushing): 4.37 | log10 UAB (Statistical Unexpectedness) (reaction: flushing): 83.41 | NAB [10]: 63 | RAB [10]: 19.32 | log10 UAB (Statistical Unexpectedness) [10]: 62.93 | NAB (reaction: listeriosis): 41 | RAB (reaction: listeriosis): 30.26 | log10 UAB (Statistical Unexpectedness) (reaction: listeriosis): 52.60 | NAB (reaction: lupus-like syndrome): 179 | RAB (reaction: lupus-like syndrome): 27.45 | log10 UAB (Statistical Unexpectedness) (reaction: lupus-like syndrome): 215.11 | NAB (reaction: medication error): 17 | RAB (reaction: medication error): 0.07 | log10 UAB (Statistical Unexpectedness) (reaction: medication error): 75.78 | NAB [11]: 6 | RAB [11]: 0.05 | log10 UAB (Statistical Unexpectedness) [11]: 41.69 | NAB [12]: 66 | RAB [12]: 9.58 | log10 UAB (Statistical Unexpectedness) [12]: 43.17 | NAB (reaction: pneumonia nos): 369 | RAB (reaction: pneumonia nos): 2.92 | log10 UAB (Statistical Unexpectedness) (reaction: pneumonia nos): 71.42 | NAB [13]: 99 | RAB [13]: 23.31 | log10 UAB (Statistical Unexpectedness) [13]: 109.04 | NAB (reaction: pyrexia): 596 | RAB (reaction: pyrexia): 1.80 | log10 UAB (Statistical Unexpectedness) (reaction: pyrexia): 41.44 | RAB (reaction: rhabdomyolysis): 0.08 | log10 UAB (Statistical Unexpectedness) (reaction: rhabdomyolysis): 58.33 | NAB [14]: 60 | RAB [14]: 12.27 | log10 UAB (Statistical Unexpectedness) [14]: 46.14 | NAB (reaction: rigors): 252 | RAB (reaction: rigors): 2.65 | log10 UAB (Statistical Unexpectedness) (reaction: rigors): 41.86 | NAB (reaction: sepsis nos): 268 | RAB (reaction: sepsis nos): 3.28 | log10 UAB (Statistical Unexpectedness) (reaction: sepsis nos): 61.87 | NAB [15]: 192 | RAB [15]: 11.24 | log10 UAB (Statistical Unexpectedness) [15]: 137.84 | NAB (reaction: tuberculosis): 64 | RAB (reaction: tuberculosis): 25.34 | log10 UAB (Statistical Unexpectedness) (reaction: tuberculosis): 74.07 | NAB (reaction: tuberculosis nos): 275 | RAB (reaction: tuberculosis nos): 29.00 | log10 UAB (Statistical Unexpectedness) (reaction: tuberculosis nos): >308.00 | association with tuberculosis by orthogonalized lattice analysis (in words) [1]: only strong positive association with tuberculosis

Cc1ccc(C)c(OCCCC(C)(C)C(=O)O)c1 [Case L, gemfibrozil]
Nref^+ (maximum subset size from the 200 randomly generated non-rhabdomyolysis datasets) [2]: 72 | Nref^− (minimum subset size from the 200 randomly generated non-rhabdomyolysis datasets) [2]: 33 | Nrhabdo (subset size based on the rhabdomyolysis dataset) [2]: 2982 | PChebyshev (probability derived from the Chebyshev inequality) [2]: 6.16 × 10^−6 | Nref^+ (maximum subset size from the 200 randomly generated non-rhabdomyolysis datasets) [3]: 55 | Nref^− (minimum subset size from the 200 randomly generated non-rhabdomyolysis datasets) [3]: 21 | PChebyshev (probability derived from the Chebyshev inequality) [3]: 5.36 × 10^−4 | association with rhabdomyolysis (in words) [3]: only weak evidence | Z (z-score, rhabdomyolysis vs non-rhabdomyolysis randomized datasets) ([3]; listed as L BP): 43* | Z (z-score, rhabdomyolysis vs non-rhabdomyolysis randomized datasets) ([3]; listed as Lopid): 43 | Nrhabdo (subset size based on the rhabdomyolysis dataset) [3]: 306

CN(Cc1cnc2nc(N)nc(N)c2n1)c1ccc(C(=O)N[C@@H](CCC(=O)O)C(=O)O)cc1 [Methotrexate, methotrexate]
drug interaction with respect to pulmonary fibrosis (in words) [4]: responsible for the large number of cases seen when both drugs are present

COC(=O)[C@H](c1ccccc1Cl)N1CCc2sccc2C1 [Case P, clopidogrel bisulfate]
Nref^+ (maximum subset size from the 200 randomly generated non-rhabdomyolysis datasets) [2]: 177 | Nref^− (minimum subset size from the 200 randomly generated non-rhabdomyolysis datasets) [2]: 114 | Nrhabdo (subset size based on the rhabdomyolysis dataset) [2]: 465 | PChebyshev (probability derived from the Chebyshev inequality) [2]: 1.43 × 10^−3 | association with rhabdomyolysis (in words) [2]: significant at the Bonferroni-corrected 5% | z (z-score, rhabdomyolysis vs non-rhabdomyolysis datasets) [2]: 26* | Nref^+ (maximum subset size from the 200 randomly generated non-rhabdomyolysis datasets) [3]: 169 | Nref^− (minimum subset size from the 200 randomly generated non-rhabdomyolysis datasets) [3]: 109 | PChebyshev (probability derived from the Chebyshev inequality) [3]: 2.20 × 10^−1 | Z (z-score, rhabdomyolysis vs non-rhabdomyolysis randomized datasets) [3]: 2 | Nrhabdo (subset size based on the rhabdomyolysis dataset) [3]: 163
